The values that follow are results of earlier work, collected in publication PMC4454200.

As a reminder, the Kd is the constant that tells how readily two partners part at equilibrium.

The data set deals with Myosin-5a GTD (Mus musculus) (UniProt Q99104).
Chain of Myosin-5a GTD (Mus musculus) (Q99104 1469-1853): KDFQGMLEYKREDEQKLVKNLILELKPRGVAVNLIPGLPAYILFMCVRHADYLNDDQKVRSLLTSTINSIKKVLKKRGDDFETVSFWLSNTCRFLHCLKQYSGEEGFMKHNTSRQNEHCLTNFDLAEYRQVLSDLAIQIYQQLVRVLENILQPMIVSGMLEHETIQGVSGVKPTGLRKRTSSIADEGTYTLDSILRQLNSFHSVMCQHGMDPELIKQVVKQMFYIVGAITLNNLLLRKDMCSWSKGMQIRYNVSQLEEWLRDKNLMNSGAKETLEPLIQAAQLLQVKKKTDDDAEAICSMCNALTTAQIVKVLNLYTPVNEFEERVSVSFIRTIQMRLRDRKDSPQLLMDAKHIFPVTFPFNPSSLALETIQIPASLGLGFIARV

Chain of Melanophilin GTBDP (Q91V27 176-201): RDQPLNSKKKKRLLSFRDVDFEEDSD

For “Melanophilin GTBDP (from UniProt Q91V27)”, the Kd was 500 nM.
